Values quoted from earlier work as cited in article PMC12521419.

Columns and labels:
[1] = test system: LMBV virion (largemouth bass virus particle; binding protein not identified) (Largemouth bass virus (genus Ranavirus, family Iridoviridae), isolated from diseased largemouth bass, propagated in FHM cells); experiment: not stated for truncated form (ELASA stated for parent LA13); details: PBS, aptamers 500 nM each with LMBV in 100 uL for 1 h (temperature not stated); streptavidin beads 4 C 30 min; washes PBS + 0.1% Tween-20; SDA 37 C 30 min …
[2] = test system: LMBV virion (largemouth bass virus particle; binding protein not identified) (Largemouth bass virus (genus Ranavirus, family Iridoviridae), isolated from diseased largemouth bass, propagated in FHM cells); experiment: not stated for truncated form (ELASA stated for parent LA38); details: PBS, aptamers 500 nM each with LMBV in 100 uL for 1 h (temperature not stated); streptavidin beads 4 C 30 min; washes PBS + 0.1% Tween-20; SDA 37 C 30 min …

Sequence	Kd [1]	Kd [2]
TTTTGACGCTTTATCCTTTTCTTATGGCGGGATAGTTTCG [LA13s]	2.34 nM	
GCCGGCCCGGGGGATAGAGTGCTCCCGATCCCTTGGCGAAGGGAC [LA38s]		3.42 nM
